What was measured:
[1] = biological target: T1, epidermal growth factor receptor (EGFR) (human, UniProt P00533 25-1210); experiment: cell-based or functional assay
[2] = biological target: T1, epidermal growth factor receptor (EGFR); experiment: flow cytometry, equilibrium binding on EGFR-expressing A431 cells (apparent KD)
Protocol: Detection of bound antibody or immunoRNase was performed using murine anti-c-myc monoclonal antibody clone 9E10 (Roche, Penzberg, Germany) and goat-anti-mouse fluorescein isothiocyanate (FITC) conjugate (Jackson ImmunoResearch, Suffolk, UK). Fluorescence of stained cells was measured on a FACS Canto II flow cytometer (Becton Dickinson) using the FACS Diva Software (Becton Dickinson). Background fluorescence was substracted from measured median fluorescence and relative affinities were calculated by nonlinear regression using GraphPad Prism 5.0 (GraphPad Software, La Jolla, Calif., USA).

Row | Binder | IC50 (nM), cell viability, A431 [1] [nM] | IC50 (nM), cell viability, HNO97 [1] [nM] | IC50 (nM), cell viability, HNO211 [1] [nM] | IC50 (nM), cell viability, HNO410 [1] [nM] | Kd [2] [µM]
1 | humanized anti-epidermal growth factor receptor (EGFR) scFv IZI08 (scFv, Expressed in E. coli periplasm, monomer purified by SEC; also called anti-EGFR scFv; anti-EGFR scFv IZI08; not shown: C-terminal c-myc tag; C-terminal hexahistidine tag) scFv: EVQLVESGGGLVQPGGSLRLSCAASGFSLTNYGVHWVRQAPGKGLEWLGVIWSGGNTDYNTPFTSRFTISRDNSKNTLYLQMNSLRAEDTAVYYCARALTYYDYEFAYWGQGTTVTVSSGGGGSGGGGSGGGGSDIQLTQSPSFLSASVGDRVTITCRASQSIGTNIHWYQQKPGKAPKLLIKYASESISGVPSRFSGSGSGTEFTLTISSLQPEDFATYYCQQNNNWPTTFGAGTKLEIKR | > 3620 | > 3620 | > 3620 | > 3620 | 0.0096
2 | Ranpirnase-GS-scFv (other, Q* at position 1 of SEQ ID NO:4 stands for a pyroglutamate (as printed for Ranpirnase), also called Ranpimase-GS-scFv; immunoRNase Ranpirnase-GS-scFv; not shown: C-terminal c-myc tag; C-terminal hexahistidine tag) QDWLTFQKKHITNTRDVDCDNIMSTNLFHCKDKNTFIYSRPEPVKAICKGIIASKNVLTTSEFYLSDCNVTSRPCKYKLKKSTNKFCVTCENQAPVHFVGVGSCGGGGSGGGGSGGGGSEVQLVESGGGLVQPGGSLRLSCAASGFSLTNYGVHWVRQAPGKGLEWLGVIWSGGNTDYNTPFTSRFTISRDNSKNTLYLQMNSLRAEDTAVYYCARALTYYDYEFAYWGQGTTVTVSSGGGGSGGGGSGGGGSDIQLTQSPSFLSASVGDRVTITCRASQSIGTNIHWYQQKPGKAPKLLIKYASESISGVPSRFSGSGSGTEFTLTISSLQPEDFATYYCQQNNNWPTTFGAGTKLEIKR | > 3620 | 1260 | 1420 | 2520 | 0.0147

From patent US20170260274A1 (LUTANA, published 2017)
